Assay results taken from article PMC7002446.

Molecular target: transferrin receptor 1 (TfR1) (human (endogenous in gastric cancer patient tissue and human GC cell lines)) (UniProt P02786)
Sequence (P02786 whole entry): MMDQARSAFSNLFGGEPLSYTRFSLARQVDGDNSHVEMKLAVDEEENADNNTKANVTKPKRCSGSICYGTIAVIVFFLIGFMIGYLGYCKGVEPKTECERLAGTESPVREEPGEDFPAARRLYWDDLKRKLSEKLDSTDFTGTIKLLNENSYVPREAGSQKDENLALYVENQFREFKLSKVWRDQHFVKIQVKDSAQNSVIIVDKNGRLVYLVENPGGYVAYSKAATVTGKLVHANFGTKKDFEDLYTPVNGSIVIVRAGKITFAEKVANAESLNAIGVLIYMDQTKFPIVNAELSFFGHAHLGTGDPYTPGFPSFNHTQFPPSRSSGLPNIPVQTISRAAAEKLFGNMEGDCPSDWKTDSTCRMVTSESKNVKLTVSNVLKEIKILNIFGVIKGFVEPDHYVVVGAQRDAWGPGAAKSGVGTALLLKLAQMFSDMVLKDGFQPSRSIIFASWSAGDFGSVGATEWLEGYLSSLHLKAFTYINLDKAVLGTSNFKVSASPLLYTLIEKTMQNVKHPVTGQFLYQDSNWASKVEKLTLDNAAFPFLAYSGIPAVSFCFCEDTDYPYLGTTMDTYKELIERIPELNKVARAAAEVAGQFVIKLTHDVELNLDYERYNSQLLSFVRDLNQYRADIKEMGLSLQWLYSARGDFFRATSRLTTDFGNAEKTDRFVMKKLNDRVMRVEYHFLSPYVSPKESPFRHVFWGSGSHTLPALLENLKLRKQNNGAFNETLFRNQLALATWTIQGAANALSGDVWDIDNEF

Sequence of doxorubicin-loaded HFn nanocarrier (HFn-Dox) (P02794 whole entry): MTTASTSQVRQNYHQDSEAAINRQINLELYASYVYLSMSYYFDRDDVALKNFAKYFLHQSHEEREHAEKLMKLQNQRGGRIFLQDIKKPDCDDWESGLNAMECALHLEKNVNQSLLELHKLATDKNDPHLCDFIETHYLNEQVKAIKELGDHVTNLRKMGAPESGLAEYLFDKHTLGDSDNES

doxorubicin-loaded HFn nanocarrier (HFn-Dox) (from UniProt P02794 1-183) (natural protein)
tumor growth inhibition (TGI) rate in TfR1-positive GC-PDX mouse models treated with HFn-Dox (against 41.6% for free Dox): 91.1%
